Values quoted from earlier work as cited in PMC4860950.

Legend:
CD2 (Mus musculus) = CD2 (Mus musculus) (UniProt P08920)
CD244 (Homo sapiens) = CD244 (Homo sapiens) (UniProt Q9BZW8)
CD2 (Homo sapiens) = CD2 (Homo sapiens) (UniProt P06729)
Sequence of UniProt P06729 (P06729 25-209): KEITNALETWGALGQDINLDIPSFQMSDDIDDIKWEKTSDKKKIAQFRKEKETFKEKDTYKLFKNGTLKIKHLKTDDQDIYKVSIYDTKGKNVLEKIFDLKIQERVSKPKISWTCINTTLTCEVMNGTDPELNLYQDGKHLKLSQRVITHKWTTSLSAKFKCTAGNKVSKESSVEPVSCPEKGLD

Sequence of UniProt Q9BZW8 (Q9BZW8 22-229): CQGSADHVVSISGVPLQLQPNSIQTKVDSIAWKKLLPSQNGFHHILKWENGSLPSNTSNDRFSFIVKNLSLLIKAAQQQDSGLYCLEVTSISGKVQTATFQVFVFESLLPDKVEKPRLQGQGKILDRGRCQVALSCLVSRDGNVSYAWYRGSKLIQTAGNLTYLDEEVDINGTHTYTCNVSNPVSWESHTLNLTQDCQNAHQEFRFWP
Sequence of UniProt P08920 (P08920 23-203): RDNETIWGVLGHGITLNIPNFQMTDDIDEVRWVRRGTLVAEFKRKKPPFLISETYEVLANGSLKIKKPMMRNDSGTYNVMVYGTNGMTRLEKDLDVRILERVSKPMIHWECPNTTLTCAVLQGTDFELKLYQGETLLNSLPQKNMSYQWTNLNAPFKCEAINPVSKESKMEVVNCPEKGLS

Substance	Kd (CD2 (Mus musculus)) [µM]	Kd (CD244 (Homo sapiens)) [µM]	Kd (CD2 (Homo sapiens)) [µM]
CD48 (from UniProt P18181)	90		
CD48 (from UniProt P09326)		8	100
